± gives the uncertainty stated by the source.
B1: Zinc finger homeobox protein 4, residues 2086 to 2141; numbered along this chain, Q86UP3 (parent)
chain: RPRTRITDDQLKILRAYFDINNSPSEEQIQEMAEKSGLSQKVIKHWFRNTLFKERQ

Variants of: B1
Assay: abundance fitness (aPCA) (normalised: wild type 0, dead -1); higher = more abundant; growth selection in yeast, the domain comes from the species named
Details: Homo sapiens
Variant E27P has an abundance fitness of -0.24 ± 0.23. E27K gave an abundance fitness of -0.054 ± 0.25. In the case of E27L, the abundance fitness is reported as -0.194 ± 0.12. For E27V, the abundance fitness was -0.071 ± 0.14. E27G gave an abundance fitness of -0.033 ± 0.096. E27Q gave an abundance fitness of 0.142 ± 0.18. E27D gave an abundance fitness of -0.18 ± 0.29. Work on E27R yielded an abundance fitness of -0.02 ± 0.1. Work on E27N yielded an abundance fitness of 0.129 ± 0.38. With E27S the abundance fitness was -0.105 ± 0.17. In the case of E27H, the abundance fitness is reported as -0.59 ± 0.49. Work on E27M yielded an abundance fitness of 0.082 ± 0.21. Work on E27W yielded an abundance fitness of 0.021 ± 0.21. Work on E27Y yielded an abundance fitness of -0.391 ± 0.29. E27A gave an abundance fitness of 0.076 ± 0.15. Work on E27T yielded an abundance fitness of -0.185 ± 0.22. For E27I, the abundance fitness was -0.261 ± 0.38. K35A gave an abundance fitness of -0.247 ± 0.091. For E26Q, the abundance fitness was -0.003 ± 0.094. E26S gave an abundance fitness of -0.076 ± 0.078. Variant E26V has an abundance fitness of -0.056 ± 0.078. Variant E26F has an abundance fitness of 0.111 ± 0.14. In the case of E26W, the abundance fitness is reported as -0.322 ± 0.11. For E26M, the abundance fitness was -0.032 ± 0.09. With E26A the abundance fitness was -0.027 ± 0.077. Variant E26G has an abundance fitness of -0.154 ± 0.074. E26T gave an abundance fitness of 0.133 ± 0.089. E26R showed an abundance fitness of 0.021 ± 0.071. With E26K the abundance fitness was 0.039 ± 0.14. For E26D, the abundance fitness was -0.069 ± 0.12. Work on E26P yielded an abundance fitness of -0.032 ± 0.093. For E26C, the abundance fitness was -0.211 ± 0.12. Work on E26Y yielded an abundance fitness of 0.048 ± 0.12. E26L gave an abundance fitness of -0.015 ± 0.079. With M32C the abundance fitness was -0.154 ± 0.084. M32F showed an abundance fitness of -0.547 ± 0.14. In the case of M32G, the abundance fitness is reported as -0.672 ± 0.07. In the case of M32N, the abundance fitness is reported as -1 ± 0.2. With M32D the abundance fitness was -1.37 ± 0.26. In the case of M32A, the abundance fitness is reported as -0.55 ± 0.11. Work on M32Y yielded an abundance fitness of -0.212 ± 0.12. For M32V, the abundance fitness was -0.276 ± 0.084. With M32Q the abundance fitness was -0.837 ± 0.14. For M32T, the abundance fitness was -0.706 ± 0.14. M32E showed an abundance fitness of -1.01 ± 0.15. For M32I, the abundance fitness was -0.244 ± 0.12. Variant M32S has an abundance fitness of -0.564 ± 0.08. For M32R, the abundance fitness was -0.911 ± 0.07. M32K showed an abundance fitness of -0.923 ± 0.13. Work on M32P yielded an abundance fitness of -1.2 ± 0.24. M32W showed an abundance fitness of -0.511 ± 0.083. Variant M32H has an abundance fitness of -0.686 ± 0.14. Work on S25Y yielded an abundance fitness of -0.471 ± 0.31. In the case of S25F, the abundance fitness is reported as -0.468 ± 0.23. With S25P the abundance fitness was -0.26 ± 0.38. Variant Q30C has an abundance fitness of -0.275 ± 0.17. With Q30S the abundance fitness was -0.159 ± 0.1. Variant Q30D has an abundance fitness of -0.495 ± 0.23. In the case of Q30F, the abundance fitness is reported as -0.441 ± 0.24. In the case of Q30W, the abundance fitness is reported as -0.349 ± 0.098. In the case of Q30N, the abundance fitness is reported as -0.08 ± 0.26. For Q30K, the abundance fitness was 0.146 ± 0.13. With Q30G the abundance fitness was -0.116 ± 0.079. In the case of Q30I, the abundance fitness is reported as 0.196 ± 0.24. With Q30T the abundance fitness was -0.025 ± 0.097. In the case of Q30L, the abundance fitness is reported as 0.031 ± 0.088. In the case of Q30E, the abundance fitness is reported as -0.154 ± 0.1. Work on Q30A yielded an abundance fitness of -0.019 ± 0.1. In the case of Q30H, the abundance fitness is reported as -0.072 ± 0.17. In the case of A33W, the abundance fitness is reported as -0.582 ± 0.42. In the case of A33R, the abundance fitness is reported as 0.05 ± 0.13. A33P showed an abundance fitness of -0.84 ± 0.19. Variant A33S has an abundance fitness of -0.025 ± 0.11. Variant A33Q has an abundance fitness of 0.127 ± 0.27. A33G showed an abundance fitness of 0.056 ± 0.16. Variant A33C has an abundance fitness of 0.181 ± 0.12. Work on A33K yielded an abundance fitness of -0.126 ± 0.25. With A33F the abundance fitness was -0.036 ± 0.11. A33D showed an abundance fitness of -0.337 ± 0.14. A33T showed an abundance fitness of 0.029 ± 0.1. In the case of A33Y, the abundance fitness is reported as -0.531 ± 0.21. For A33I, the abundance fitness was 0.038 ± 0.17. Work on A33H yielded an abundance fitness of 0.191 ± 0.18. Work on A33V yielded an abundance fitness of -0.169 ± 0.14. Q28P gave an abundance fitness of -0.533 ± 0.094. Q28H showed an abundance fitness of -0.046 ± 0.1. Work on Q28A yielded an abundance fitness of -0.092 ± 0.076. For Q28M, the abundance fitness was -0.153 ± 0.11. In the case of Q28K, the abundance fitness is reported as 0.064 ± 0.12. Q28G gave an abundance fitness of -0.178 ± 0.072. With Q28S the abundance fitness was -0.095 ± 0.077. With Q28T the abundance fitness was -0.034 ± 0.11. In the case of Q28E, the abundance fitness is reported as -0.155 ± 0.12. Q28V gave an abundance fitness of -0.033 ± 0.074. Variant Q28L has an abundance fitness of -0.102 ± 0.077. Variant Q28I has an abundance fitness of 0.06 ± 0.17. Q28W showed an abundance fitness of -0.38 ± 0.085. In the case of Q28R, the abundance fitness is reported as 0.037 ± 0.065. Variant Q28N has an abundance fitness of -0.329 ± 0.14. For Q28F, the abundance fitness was -0.416 ± 0.18. In the case of Q28D, the abundance fitness is reported as -0.12 ± 0.11. For Q28C, the abundance fitness was -0.244 ± 0.089. In the case of Q28Y, the abundance fitness is reported as -0.236 ± 0.12. Variant P24W has an abundance fitness of -0.435 ± 0.18. Variant P24N has an abundance fitness of -0.691 ± 0.091. Work on P24S yielded an abundance fitness of -0.553 ± 0.072. For P24L, the abundance fitness was -0.259 ± 0.067. In the case of P24Y, the abundance fitness is reported as -0.51 ± 0.087. For P24I, the abundance fitness was -0.337 ± 0.092. P24R gave an abundance fitness of -0.642 ± 0.11. For P24M, the abundance fitness was -0.676 ± 0.12. For P24H, the abundance fitness was -0.427 ± 0.08. In the case of P24V, the abundance fitness is reported as -0.32 ± 0.081. P24K gave an abundance fitness of -0.922 ± 0.15. Work on P24T yielded an abundance fitness of -0.474 ± 0.084. For I29L, the abundance fitness was 0.002 ± 0.08. With I29D the abundance fitness was -0.744 ± 0.12. In the case of I29P, the abundance fitness is reported as -0.814 ± 0.14. In the case of I29N, the abundance fitness is reported as -0.462 ± 0.2. I29H showed an abundance fitness of -0.347 ± 0.25. Work on I29F yielded an abundance fitness of -0.02 ± 0.13. In the case of I29Q, the abundance fitness is reported as -0.147 ± 0.12. Variant I29M has an abundance fitness of -0.081 ± 0.11. For I29R, the abundance fitness was -0.21 ± 0.068. With I29G the abundance fitness was -0.605 ± 0.07. In the case of I29Y, the abundance fitness is reported as 0.048 ± 0.17. Variant I29E has an abundance fitness of -0.025 ± 0.091. I29K gave an abundance fitness of -0.226 ± 0.13. Work on I29C yielded an abundance fitness of -0.149 ± 0.1. Variant I29W has an abundance fitness of -0.16 ± 0.091. With I29T the abundance fitness was -0.266 ± 0.1. Variant I29A has an abundance fitness of -0.376 ± 0.075. Work on E31H yielded an abundance fitness of -0.109 ± 0.14. With E31R the abundance fitness was -0.007 ± 0.07. E31F gave an abundance fitness of -0.191 ± 0.11. With E31D the abundance fitness was -0.07 ± 0.1. For E31T, the abundance fitness was -0.182 ± 0.12. Variant E31C has an abundance fitness of -0.141 ± 0.099. E31Q showed an abundance fitness of -0.005 ± 0.14. E31P gave an abundance fitness of -0.316 ± 0.11. For E31A, the abundance fitness was -0.104 ± 0.087. E31Y gave an abundance fitness of -0.162 ± 0.14. Variant E31K has an abundance fitness of 0.108 ± 0.12. Variant E31V has an abundance fitness of -0.031 ± 0.075. Variant E31L has an abundance fitness of -0.089 ± 0.076. For E31N, the abundance fitness was 0.011 ± 0.15. Variant E31S has an abundance fitness of -0.074 ± 0.074. Work on E31I yielded an abundance fitness of -0.09 ± 0.13. For E31W, the abundance fitness was -0.26 ± 0.086. Variant E31G has an abundance fitness of -0.106 ± 0.07. Variant E34Y has an abundance fitness of -0.502 ± 0.2. For E34I, the abundance fitness was -0.211 ± 0.19. Variant E34L has an abundance fitness of -0.054 ± 0.085. In the case of E34G, the abundance fitness is reported as 0.033 ± 0.068. Variant E34M has an abundance fitness of -0.221 ± 0.13. In the case of E34S, the abundance fitness is reported as -0.162 ± 0.083. Work on E34K yielded an abundance fitness of -0.147 ± 0.14. E34C gave an abundance fitness of -0.429 ± 0.13. Work on E34F yielded an abundance fitness of -0.392 ± 0.12. Variant E34P has an abundance fitness of -0.536 ± 0.14. For E34A, the abundance fitness was -0.011 ± 0.084. With E34N the abundance fitness was -0.136 ± 0.14. E34H showed an abundance fitness of -0.314 ± 0.16. E34D gave an abundance fitness of -0.014 ± 0.1. For E34V, the abundance fitness was -0.037 ± 0.073. Variant E34T has an abundance fitness of 0.023 ± 0.11. With E34W the abundance fitness was -0.276 ± 0.098.

Source: the Human Domainome abundance scans (Beltran et al. 2025)
